Experimental data taken from the supplement of paper PMC10065799, “High-throughput profiling of sequence recognition by tyrosine kinases and SH2 domains using bacterial peptide display” (eLife, 2023).

Legend:
[1] = target: c-Src SH2; experiment: SH2 binding enrichment of the phosphorylated peptide, bacterial display (enrichment ratio); higher = better substrate or ligand; peptides without Tyr show the background
[2] = target: Grb2 SH2 (UniProt P62993); experiment: as above
[3] = target: SHP2-C SH2; experiment: as above
[4] = target: MERTK (UniProt Q12866); experiment: phosphorylation enrichment, bacterial display (enrichment ratio); higher = better substrate or ligand; peptides without Tyr show the background
[5] = target: Hck (UniProt P08631); experiment: as above
Chain of Hck (P08631 whole entry, looked up): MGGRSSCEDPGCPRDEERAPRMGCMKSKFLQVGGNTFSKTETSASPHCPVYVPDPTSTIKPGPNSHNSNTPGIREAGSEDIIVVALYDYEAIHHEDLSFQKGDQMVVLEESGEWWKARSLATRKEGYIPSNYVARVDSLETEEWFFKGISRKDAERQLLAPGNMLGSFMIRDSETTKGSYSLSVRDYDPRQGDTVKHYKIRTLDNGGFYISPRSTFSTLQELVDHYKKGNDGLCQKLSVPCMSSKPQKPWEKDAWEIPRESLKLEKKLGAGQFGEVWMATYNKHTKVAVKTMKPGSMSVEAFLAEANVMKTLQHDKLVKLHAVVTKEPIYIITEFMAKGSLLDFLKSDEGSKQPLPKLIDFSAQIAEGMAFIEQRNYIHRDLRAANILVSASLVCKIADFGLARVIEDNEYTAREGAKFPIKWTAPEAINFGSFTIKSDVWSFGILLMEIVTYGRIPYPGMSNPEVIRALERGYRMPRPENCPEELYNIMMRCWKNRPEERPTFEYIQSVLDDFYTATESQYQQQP

[6] = system: AncSZ; experiment: as above
[7] = target: EPHB2 (UniProt P29323); experiment: as above
Chain of EPHB2 (P29323 whole entry, looked up): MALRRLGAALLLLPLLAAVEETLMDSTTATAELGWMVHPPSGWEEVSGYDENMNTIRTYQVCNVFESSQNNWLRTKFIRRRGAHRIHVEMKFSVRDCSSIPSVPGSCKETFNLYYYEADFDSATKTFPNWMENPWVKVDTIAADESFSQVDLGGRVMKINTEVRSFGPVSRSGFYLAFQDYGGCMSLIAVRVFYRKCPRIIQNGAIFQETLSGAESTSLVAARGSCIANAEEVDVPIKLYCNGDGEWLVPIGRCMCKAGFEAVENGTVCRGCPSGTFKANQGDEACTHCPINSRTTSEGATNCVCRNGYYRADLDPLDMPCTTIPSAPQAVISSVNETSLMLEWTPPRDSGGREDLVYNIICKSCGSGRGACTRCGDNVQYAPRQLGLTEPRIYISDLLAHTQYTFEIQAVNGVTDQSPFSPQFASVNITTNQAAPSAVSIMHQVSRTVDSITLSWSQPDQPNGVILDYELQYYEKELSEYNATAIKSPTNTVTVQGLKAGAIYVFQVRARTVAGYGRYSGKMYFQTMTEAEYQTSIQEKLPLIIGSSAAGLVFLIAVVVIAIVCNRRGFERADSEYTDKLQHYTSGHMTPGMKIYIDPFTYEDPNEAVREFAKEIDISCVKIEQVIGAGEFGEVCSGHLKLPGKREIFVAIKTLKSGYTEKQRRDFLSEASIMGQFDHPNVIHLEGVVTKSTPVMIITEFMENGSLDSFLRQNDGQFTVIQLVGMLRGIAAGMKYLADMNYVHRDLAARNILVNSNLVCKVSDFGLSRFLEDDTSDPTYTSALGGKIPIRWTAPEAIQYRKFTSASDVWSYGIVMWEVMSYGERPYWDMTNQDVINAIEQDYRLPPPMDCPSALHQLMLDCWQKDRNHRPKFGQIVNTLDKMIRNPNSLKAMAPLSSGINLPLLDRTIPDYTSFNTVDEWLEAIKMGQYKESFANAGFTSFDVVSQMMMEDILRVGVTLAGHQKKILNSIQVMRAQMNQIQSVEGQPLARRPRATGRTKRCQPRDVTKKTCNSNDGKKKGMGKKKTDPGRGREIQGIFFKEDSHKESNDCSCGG

[8] = system: c-Abl (mouse); experiment: as above
[9] = target: Fyn (UniProt P06241); experiment: as above
Chain of Fyn (P06241 whole entry, looked up): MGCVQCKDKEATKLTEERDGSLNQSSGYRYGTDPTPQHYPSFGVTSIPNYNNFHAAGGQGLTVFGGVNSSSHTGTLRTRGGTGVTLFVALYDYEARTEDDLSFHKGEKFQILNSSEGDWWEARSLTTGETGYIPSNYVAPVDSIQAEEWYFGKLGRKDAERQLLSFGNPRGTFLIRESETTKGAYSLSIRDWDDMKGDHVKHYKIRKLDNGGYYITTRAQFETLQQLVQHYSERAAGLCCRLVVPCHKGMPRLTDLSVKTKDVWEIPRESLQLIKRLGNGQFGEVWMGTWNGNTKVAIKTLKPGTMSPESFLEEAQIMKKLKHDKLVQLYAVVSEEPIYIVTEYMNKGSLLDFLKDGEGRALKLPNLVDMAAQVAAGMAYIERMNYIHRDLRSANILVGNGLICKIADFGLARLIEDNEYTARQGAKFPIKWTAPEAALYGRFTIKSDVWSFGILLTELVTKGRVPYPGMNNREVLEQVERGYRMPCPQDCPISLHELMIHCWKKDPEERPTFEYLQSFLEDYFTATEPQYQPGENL

[10] = system: c-Src; experiment: as above
[11] = target: Jak2 (UniProt O60674); experiment: as above
[12] = target: EPHB1 (UniProt P54762); experiment: as above
Chain of EPHB1 (P54762 whole entry, looked up): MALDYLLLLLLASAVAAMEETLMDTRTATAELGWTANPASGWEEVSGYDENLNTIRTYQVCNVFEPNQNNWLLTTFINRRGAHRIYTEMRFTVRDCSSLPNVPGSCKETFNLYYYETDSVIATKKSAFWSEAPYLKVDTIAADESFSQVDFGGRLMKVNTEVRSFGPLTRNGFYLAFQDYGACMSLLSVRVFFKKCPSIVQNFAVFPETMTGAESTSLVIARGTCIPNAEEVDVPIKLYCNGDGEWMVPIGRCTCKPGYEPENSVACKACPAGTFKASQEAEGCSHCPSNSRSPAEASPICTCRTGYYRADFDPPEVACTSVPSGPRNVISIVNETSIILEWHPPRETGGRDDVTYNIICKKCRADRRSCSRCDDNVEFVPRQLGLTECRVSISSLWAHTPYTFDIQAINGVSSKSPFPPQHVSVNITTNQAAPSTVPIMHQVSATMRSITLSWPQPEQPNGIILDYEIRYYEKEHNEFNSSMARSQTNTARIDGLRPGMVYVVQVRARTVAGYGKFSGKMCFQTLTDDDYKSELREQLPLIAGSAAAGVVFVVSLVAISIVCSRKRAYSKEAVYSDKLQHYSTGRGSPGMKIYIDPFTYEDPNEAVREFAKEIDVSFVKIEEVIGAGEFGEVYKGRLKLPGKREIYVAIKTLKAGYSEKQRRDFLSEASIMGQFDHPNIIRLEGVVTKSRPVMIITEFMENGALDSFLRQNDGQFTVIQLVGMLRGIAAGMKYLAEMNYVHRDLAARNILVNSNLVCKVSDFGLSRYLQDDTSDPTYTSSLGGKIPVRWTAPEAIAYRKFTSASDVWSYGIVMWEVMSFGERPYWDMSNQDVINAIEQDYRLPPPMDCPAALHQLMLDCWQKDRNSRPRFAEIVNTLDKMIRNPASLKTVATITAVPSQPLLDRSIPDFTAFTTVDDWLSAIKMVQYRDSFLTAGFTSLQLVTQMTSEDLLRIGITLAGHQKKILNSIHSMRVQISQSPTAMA

[13] = target: FGFR3 (UniProt P22607); experiment: as above
Chain of FGFR3 (P22607 whole entry, looked up): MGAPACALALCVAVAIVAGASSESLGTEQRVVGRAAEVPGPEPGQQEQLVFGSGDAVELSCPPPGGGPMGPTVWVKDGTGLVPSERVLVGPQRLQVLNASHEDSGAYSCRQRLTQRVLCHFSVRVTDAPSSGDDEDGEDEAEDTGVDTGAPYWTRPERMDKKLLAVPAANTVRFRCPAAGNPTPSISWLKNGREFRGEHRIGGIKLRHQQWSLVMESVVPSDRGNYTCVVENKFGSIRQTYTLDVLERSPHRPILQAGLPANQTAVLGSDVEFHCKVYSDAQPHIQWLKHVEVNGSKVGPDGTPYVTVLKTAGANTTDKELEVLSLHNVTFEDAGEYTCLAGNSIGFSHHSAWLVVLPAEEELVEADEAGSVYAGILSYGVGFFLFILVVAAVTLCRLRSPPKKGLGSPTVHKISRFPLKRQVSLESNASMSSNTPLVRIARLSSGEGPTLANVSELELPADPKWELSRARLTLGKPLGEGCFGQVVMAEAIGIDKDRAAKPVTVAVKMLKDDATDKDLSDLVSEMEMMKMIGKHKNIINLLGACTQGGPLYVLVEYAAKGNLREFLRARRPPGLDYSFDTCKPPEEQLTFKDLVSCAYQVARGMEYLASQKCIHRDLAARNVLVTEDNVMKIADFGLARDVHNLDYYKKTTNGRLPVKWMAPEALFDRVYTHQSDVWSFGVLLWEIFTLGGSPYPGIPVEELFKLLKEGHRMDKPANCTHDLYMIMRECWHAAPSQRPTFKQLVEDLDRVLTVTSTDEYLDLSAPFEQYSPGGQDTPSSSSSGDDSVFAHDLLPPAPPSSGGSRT

[14] = target: FGFR1 (UniProt P11362); experiment: as above
[15] = target: Fes (UniProt P07332); experiment: as above
Chain of Fes (P07332 whole entry, looked up): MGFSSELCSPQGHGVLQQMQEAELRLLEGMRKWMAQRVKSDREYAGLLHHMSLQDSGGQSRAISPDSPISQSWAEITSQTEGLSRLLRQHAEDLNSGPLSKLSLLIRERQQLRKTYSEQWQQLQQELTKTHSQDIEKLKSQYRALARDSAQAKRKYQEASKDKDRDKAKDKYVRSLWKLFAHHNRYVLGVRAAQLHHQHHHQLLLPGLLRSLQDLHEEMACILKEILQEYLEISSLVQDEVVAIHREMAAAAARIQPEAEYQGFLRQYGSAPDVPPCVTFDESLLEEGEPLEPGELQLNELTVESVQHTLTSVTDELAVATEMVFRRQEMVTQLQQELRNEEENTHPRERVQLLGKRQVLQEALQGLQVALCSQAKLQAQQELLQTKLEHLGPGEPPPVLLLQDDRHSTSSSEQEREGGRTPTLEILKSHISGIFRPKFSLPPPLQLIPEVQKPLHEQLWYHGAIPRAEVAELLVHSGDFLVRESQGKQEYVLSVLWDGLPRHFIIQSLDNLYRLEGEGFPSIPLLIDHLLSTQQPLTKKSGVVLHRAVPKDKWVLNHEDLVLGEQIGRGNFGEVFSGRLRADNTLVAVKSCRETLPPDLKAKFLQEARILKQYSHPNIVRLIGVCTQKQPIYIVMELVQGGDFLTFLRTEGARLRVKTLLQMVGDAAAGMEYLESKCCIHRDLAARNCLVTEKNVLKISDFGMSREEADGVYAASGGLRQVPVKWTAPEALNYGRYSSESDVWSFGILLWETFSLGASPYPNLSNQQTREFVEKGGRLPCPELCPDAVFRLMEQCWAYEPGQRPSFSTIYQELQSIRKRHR

[16] = system: Fer (mouse); experiment: as above
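Wherever SH2 binding enrichment of the phosphorylated peptide, bacterial display is given: peptide library displayed on the E. coli surface as eCPX fusions, selected cells deep-sequenced, score is each peptide's frequency after selection divided by its frequency in the input.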
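Wherever phosphorylation enrichment, bacterial display is given: 11-residue human phosphosite peptides and single-mutation variants displayed on the E. coli surface, counted by deep sequencing, each peptide's frequency after selection divided by its frequency in the unselected input library; frequency after pTyr selection over input frequency; kinase dosed for 20-30% of maximal phosphorylation in three min.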

Chain of Grb2 SH2 (P62993 whole entry, looked up): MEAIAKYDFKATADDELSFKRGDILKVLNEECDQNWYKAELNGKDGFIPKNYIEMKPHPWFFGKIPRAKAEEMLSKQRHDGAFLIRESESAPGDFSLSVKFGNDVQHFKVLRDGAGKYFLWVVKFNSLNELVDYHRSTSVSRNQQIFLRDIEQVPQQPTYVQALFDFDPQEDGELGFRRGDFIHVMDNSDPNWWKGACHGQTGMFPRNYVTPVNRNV

Sequence | SH2 binding enrichment [1] | SH2 binding enrichment [2] | SH2 binding enrichment [3] | phosphorylation enrichment [4] | phosphorylation enrichment [5] | phosphorylation enrichment [6] | phosphorylation enrichment [7] | phosphorylation enrichment [8] | phosphorylation enrichment [9] | phosphorylation enrichment [10] | phosphorylation enrichment [11] | phosphorylation enrichment [12] | phosphorylation enrichment [13] | phosphorylation enrichment [14] | phosphorylation enrichment [15] | phosphorylation enrichment [16]
CDFKKYGKGLR [ZNF445_Y433_Y428C_YF] | 0.618 | 1.06 | 0.934 | 0.396 | 0.357 | 0.647 | 0.413 | 0.64 | 0.479 | 0.441 | 0.718 | 0.409 | 0.549 | 0.432 | 0.808 | 0.31
GLGGGCGGASG [KRT8_Y54_Y54C] | 0.525 | 0.944 | 0.712 | 0.384 | 0.505 | 0.582 | 0.499 | 0.444 | 0.433 | 0.404 | 0.508 | 0.465 | 0.544 | 0.494 | 0.817 | 0.449
AAVDEYLEHRR [FAM221A_Y17_Y20H] | 0.418 | 0.786 | 0.614 | 0.388 | 0.452 | 0.96 | 0.581 | 0.778 | 0.48 | 0.389 | 0.875 | 0.562 | 0.695 | 0.467 | 1.03 | 0.421
YNNYGYGSDGF [HNRNPH3_Y161_N163S] | 0.969 | 1.49 | 0.658 | 0.652 | 0.521 | 0.735 | 5.3 | 0.55 | 0.507 | 0.505 | 0.631 | 2.96 | 0.683 | 0.673 | 0.784 | 0.458
YKRAVYCIIGR [NUP93_Y391] | 0.937 | 0.906 | 0.792 | 0.849 | 0.755 | 0.746 | 0.464 | 0.563 | 0.59 | 0.626 | 0.599 | 0.506 | 0.563 | 0.429 | 0.785 | 0.505
QNTGGYYDLYG [PTPN11_Y62_D61G] | 7.13 | 1 | 0.755 | 8.88 | 8.85 | 1.32 | 2.78 | 1.01 | 8.15 | 5.87 | 6.15 | 1.85 | 10 | 13.8 | 1.64 | 2.69
ASLEAYCKHKY [RXRA_Y403] | 0.548 | 0.831 | 0.733 | 0.392 | 0.455 | 0.964 | 0.501 | 0.727 | 0.503 | 0.411 | 0.799 | 0.53 | 0.658 | 0.472 | 1.01 | 0.424
VDSAHYQLLET [DTX3L_Y385_K386Q] | 6.34 | 0.677 | 0.541 | 1.13 | 0.709 | 0.946 | 0.616 | 0.728 | 0.588 | 0.705 | 0.891 | 0.813 | 0.952 | 1.14 | 0.909 | 4.07
SFTDPYAQPPL [KMT2D_Y2378_YF] | 0.534 | 0.651 | 0.656 | 0.468 | 0.502 | 0.787 | 0.527 | 0.502 | 0.531 | 0.54 | 0.722 | 0.475 | 0.607 | 0.487 | 0.832 | 0.411
RDWSLYFKIIE [KRT18_Y129_H128L] | 0.314 | 0.567 | 0.406 | 0.327 | 0.356 | 1.66 | 0.576 | 0.4 | 0.447 | 0.354 | 1.09 | 0.799 | 0.841 | 0.395 | 1.56 | 0.464
RQEEEYKRFSE [SFSWAP_Y133_L136F] | 0.609 | 1.27 | 0.66 | 0.682 | 0.648 | 1.41 | 0.88 | 0.831 | 0.602 | 0.554 | 1.11 | 0.779 | 0.918 | 0.712 | 1.95 | 0.663
QDDYSYPSRQM [LDLR_Y847_G844D] | 1.06 | 0.93 | 0.564 | 1.13 | 1.02 | 13.3 | 7.79 | 4.49 | 1.46 | 1.02 | 1.74 | 3.54 | 1.66 | 2.04 | 2.17 | 1.66
FEPWVYSFSFE [PRKDC_Y647_YF] | 0.551 | 0.736 | 0.738 | 1.66 | 3.01 | 1.59 | 0.744 | 0.842 | 6.63 | 6.33 | 1.25 | 0.775 | 1.03 | 0.653 | 1.65 | 1.34
MFNPCYGLFEF [NEDD4L_Y680_Y679C_YF] | 0.67 | 0.929 | 0.558 | 2.85 | 2.27 | 1.33 | 0.65 | 0.917 | 4.92 | 4.79 | 1.07 | 0.633 | 0.766 | 0.578 | 1.27 | 4.76
VLNDAYENLTR [SYNE2_Y3255] | 2.25 | 3.35 | 0.917 | 0.379 | 0.521 | 1.08 | 0.759 | 0.605 | 0.524 | 0.391 | 0.665 | 0.531 | 0.761 | 0.559 | 0.859 | 0.581
MKGDFYRFLAE [YWHAG_Y131_YF] | 0.479 | 0.706 | 0.36 | 0.734 | 0.349 | 0.803 | 0.494 | 0.596 | 0.429 | 0.448 | 0.845 | 0.497 | 0.49 | 0.448 | 0.798 | 0.426
